Reference: patent publication US20170173114A1, “METHODS AND COMPOSITIONS FOR INDUCTION OF UCP1 EXPRESSION” (Joslin Diabetes Center, Inc., priority 2014, published 2017)

Assays:
Type in all cases: cell-based, murine
UCP1 = experiment: Marker mRNA expression and culture media acidification in mature brown adipocytes; settings: seven days
Method: The effect of FGF6 on murine mature brown adipocytes was also examined. Mature brown adipocytes were treated with FGF6 in growth media (DMEM+10% FBS), a vehicle control (buffer) (“buffer” referred to in FIG. 22), or BMP7 for seven days. Following the treatment, cells were examined for the color of the culture media in combination with oil Red O staining, expression of adipogenic markers, and expression of brown fat markers.
mRNA expression of UCP1, PPARγ, PTGS2, NDST3 and SIRT1 was measured in the mature adipocytes exposed to either the control, BMP7, or FGF6.

PTGS2 (COX2) = experiment: PTGS2 mRNA / COX2 protein expression in WT-1 brown preadipocytes
Method: Total RNA was isolated with QIAzol lysis reagent (Qiagen, Valencia, Calif.) and purified by RNeasy Mini columns (Qiagen) following the manufacture's instructions. cDNA was prepared from total RNA using the Advantage RT-PCR kit (BD Biosciences, Palo Alto, Calif.) according to manufacturer's instructions. Diluted cDNA was used in a PCR reaction with SYBR Green Master Mix (Applied Biosystems, Foster City, Calif.) and primers specifically designed for detection of the gene of interest. PCR reactions were run in duplicate for each sample and quantitated in the ABI Sequence Detection System (Applied Biosystems). Data were expressed as arbitrary units after normalization to levels of expression of internal controls for each sample. Sequences of primers for specific genes are each obtained from the published literature or designed using publically available gene sequence databases. Unless otherwise indicated, gene expression data described in the examples below was obtained using QPCR.
Cells were harvested in lysis buffer (50 mM HEPES, 137 mM NaCl, 1 mM MgCl2, 1 mM CaCl2, 10 mM Na2P2O7, 10 mM NaF, 2 mM EDTA, 10% glycerol, 1% Igepal CA-630, 2 mM vanadate, 10 μg/ml of leupeptin, 10 μg/ml of aprotinin, 2 mM phenylmethylsulfonyl fluoride; pH 7.4). After lysis, lysates were clarified by centrifugation at 12,000×g for 20 min at 4° C., the amount of protein in the supernatants was determined by the Bradford Protein Assay (Bio-Rad Laboratories, Hercules, Calif.). Proteins were directly solubilized in Laemmli sample buffer. Equal amounts of lysates were separated by sodium dodecyl sulfate-polyacrylamide gel electrophoresis and transferred to Immobolin-P membranes. Membranes were blocked overnight at 4° C. and incubated with the indicated antibody for 2 hours at room temperature. Specifically bound primary antibodies were detected with peroxidase-coupled secondary antibody and enhanced chemiluminescence (ECL, Amersham Biosciences, Piscataway, N.J.).
To determine if FGF4, FGF5, FGF6, FGF10, FGF16, FGF17, FGF18 or FGF20 induced either UCP1 mRNA or PTGS2 mRNA expression, murine brown preadipocyte WT-1 cells (Tseng et al., Nat. Cell. Biol. (2005) 7(6):601-611) were grown in growth media (DMEM-high glucose+10% FBS) supplemented with FGF4, FGF5, FGF6, FGF10, FGF16, FGF17, FGF18, FGF20 or buffer (control) in combination with insulin (20 nM) and triidothyronine (T3, 1 nM) for three days. All FGFs were used at a dosage of 200 ng/mL. mRNA was isolated and UCP1 and PTGS2 gene expression levels were evaluated by quantitative reverse transcription polymerase chain reaction (Q-RT-PCR) analysis. All experiments were performed triplicate and the data are presented as mean+/−SEM.
To determine if FGF1 or FGF10 induce UCP1 mRNA expression or PTGS2 mRNA expression, murine brown preadipocyte WT-1 cells (Tseng et al., Nat. Cell. Biol. (2005) 7(6):601-611) were grown in growth media (DMEM-high glucose+10% FBS) supplemented with FGF1, FGF10 or vehicle (control) in combination with insulin (20 nM) and triidothyronine (T3, 1 nM) for three days. FGF1 and FGF10 were used at a dosage of 50 ng/mL, 100 ng/mL or 300 ng/mL. mRNA was isolated and UCP1 and PTGS2 expression levels were evaluated by quantitative reverse transcription polymerase chain reaction (Q-RT-PCR) analysis. All experiments were performed triplicate and the data are presented as mean+/−SEM.
To test the role of specific prostaglandins (PGs) in activating UCP1 expression, WT-1 brown adipocytes were pretreated with PGE2, PGI2 and FGF6 for 24 hours. mRNA expression levels of UCP1, PTGS2, LDHA, PDK1 and PKM2 were then measured.

WT-1 brown preadipocytes = experiment: Seahorse Bioanalyzer cellular respiration in WT-1 brown preadipocytes
Description: The Seahorse XF24 (Seahorse Bioscience, http://www.seahorsebio.com/) was utilized for respirometry to measure oxygen consumption rates (OCR; indicating oxidative phosphorylation) and extracellular acidification rates (ECAR; indicating extracellular pH) in mature brown adipocytes. The cell plates and assay cartridges for the Seahorse XF24 have four ports allowing for drug delivery to individual wells during measurement of the metabolic parameters. For a typical bioenergetic profile, cells are first treated with oligomycin to block ATP synthase, FCCP as an uncoupler and Rotenone to block Complex 1 of the ETC (all from Sigma). Example 2 provides additional details regarding the general method. Data provided in the Figures (e.g., FIG. 27) based on the Seahorse Bioanalyzer includes a bottom horizontal line which represents the baseline of the mechanics of the machine and is not related to the experiment.
A profile of cellular respiration was developed by utilizing well-characterized mitochondrial toxins, as described in FIG. 5B. First, basal respiration was measured, followed by injection of oligomycin (an inhibitor of ATP synthase which allows measurement of ATP turnover). Then, the uncoupler FCCP (carbonilcyanide p-triflouromethoxyphenylhydrazone) was injected to measure respiratory capacity, followed by the complex 1 inhibitor rotenone (which prevents electron transfer activity and leaves only non-mitochondrial activity to be measured).
Similar results were observed when WT-1 brown preadipocytes were treated with 200 ng/mL of FGF6 for 24 hrs using the Seahorse Bioanalyzer.
The role of PGs in regulating mitochondrial function and cellular glucose uptake was also assessed. WT-1 brown preadipocytes were treated with PGE2, PGI2 and FGF6 in growth media (DMEM+10% FBS) for two days. Similar to treatment with FGF6, treatment with PGE2 and PGI2 enhanced oxygen consumption and glucose uptake, as described in FIGS. 27A and 27B, respectively.

B1: FGF6: fibroblast growth factor 6; recombinant human FGF from R&D Systems, or mouse FGF6 cDNA overexpressed by lentiviral vector (protein)
chain: KRQRRLYCNVGIGFHLQVLPDGRISGTHEENPYSLLEISTVERGVVSLFGVRSALFVAMNSKGRLYATPSFQEECKFRETLLPNNYNAYESDLYQGTYIALSKYGRVKRGSKVSPIMTVTHFLPRI
UCP1
  acidification of cell culture media, mature brown adipocytes: no acidification of cell culture media
UCP1; vs buffer or BMP7
  UCP1 mRNA expression in mature adipocytes: does not induce
PTGS2 (COX2); 200 ng/mL with insulin and T3, three days
  PTGS2 mRNA expression relative to the control: increased
PTGS2 (COX2); 50-300 ng/mL, three days
  PTGS2 mRNA expression: induced
PTGS2 (COX2); 50-300 ng/mL, three days, dose-dependent
  COX2 protein expression, Western blot: increased
PTGS2 (COX2); WT-1, 24 hours, vs vehicle
  PTGS2 mRNA expression: significantly induced
WT-1 brown preadipocytes; FGF6 overexpressing WT-1 vs control cells
  cellular respiration (basal respiration, ATP turnover, proton leak, respiratory capacity): increase in all tested aspects of cellular respiration
WT-1 brown preadipocytes; WT-1 treated with 200 ng/mL for 24 hrs
  uncoupled respiration: elevation in uncoupled respiration
WT-1 brown preadipocytes; WT-1 treated with 200 ng/mL for 24 hrs vs control cells
  cellular respiration (basal respiration, ATP turnover, proton leak, respiratory capacity): coordinated increase in all aspects of cellular respiration
